Patent US20190367631A1 (Regeneron, published 2019)
Numbering of substitutions follows the chain as printed. Names may count otherwise. Blank lines part the entries; values can stand above or below the binder they belong to.

How the values were obtained:
[1] = biological target: T1, monkey MSR1 extracellular domain expressed with a N-terminal hexahistidine-myc-myc tag (HMM-mfMSR1) (monkey (Macaca fascicularis)); assay: SPR Biacore, 37 C, antibody captured
T1 chain: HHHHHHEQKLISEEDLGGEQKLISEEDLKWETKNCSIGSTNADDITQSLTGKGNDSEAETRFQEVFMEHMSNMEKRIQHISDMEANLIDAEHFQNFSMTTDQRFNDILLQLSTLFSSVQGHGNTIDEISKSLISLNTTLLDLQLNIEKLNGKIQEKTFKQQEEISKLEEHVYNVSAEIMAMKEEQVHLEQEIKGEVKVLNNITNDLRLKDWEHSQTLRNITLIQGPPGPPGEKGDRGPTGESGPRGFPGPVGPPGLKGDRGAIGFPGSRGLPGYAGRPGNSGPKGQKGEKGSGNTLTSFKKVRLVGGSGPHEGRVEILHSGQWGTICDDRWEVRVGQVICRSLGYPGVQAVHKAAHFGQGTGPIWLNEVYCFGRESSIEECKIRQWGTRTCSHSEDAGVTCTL
Protocol: (§1) Binding affinities and kinetic constants of human anti-MSR1 antibodies for different MSR1 reagents were determined by real-time surface plasmon resonance (Biacore 4000). All binding studies were performed in 10 mM HEPES, 150 mM NaCl, 3 mM EDTA, and 0.05% v/v Surfactant Tween-20, pH 7.4 (HBS-ET) running buffer at 25° C. and 37° C.
(§2) The association rate (kₐ) and dissociation rate (kd) were determined by fitting the real-time binding sensorgrams to a 1:1 binding model with mass transport limitation using Scrubber 2.0c curve-fitting software. Binding dissociation equilibrium constant (KD) and dissociative half-life (t½) were calculated from the kinetic rates as:

[2] = biological target: T2, mouse MSR1 extracellular domain expressed with a N-terminal nonahistidine tag (His9-mMSR1); R&D Systems, Cat … (mouse, UniProt P30204 79-458); assay: BLI Octet, 25 C, antibody captured
T2 construct: extracellular domain; not shown: N-terminal nonahistidine tag
T2 sequence (looked up): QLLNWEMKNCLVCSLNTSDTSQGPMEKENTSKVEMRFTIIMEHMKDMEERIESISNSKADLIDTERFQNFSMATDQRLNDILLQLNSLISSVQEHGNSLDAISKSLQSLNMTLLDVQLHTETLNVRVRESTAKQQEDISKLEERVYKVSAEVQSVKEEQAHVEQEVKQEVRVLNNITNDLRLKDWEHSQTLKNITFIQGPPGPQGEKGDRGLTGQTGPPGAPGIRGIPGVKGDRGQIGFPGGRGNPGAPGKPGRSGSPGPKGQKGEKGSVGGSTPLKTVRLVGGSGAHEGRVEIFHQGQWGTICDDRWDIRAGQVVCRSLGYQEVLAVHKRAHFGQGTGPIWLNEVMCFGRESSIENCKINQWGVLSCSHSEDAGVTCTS

[3] = biological target: T1, monkey MSR1 extracellular domain …; assay: SPR Biacore, 25 C, antibody captured;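 note: rates from 1:1 fit with mass transport limitation of real-time sensorgrams, HEPES-buffered saline with EDTA and Tween-20 at pH 7.4, KD and t½ derived from the kinetic rates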
[4] = biological target: T3, human MSR1 extracellular domain expressed with a N-terminal nonahistidine tag (His9-hMSR1); R&D Systems, Cat … (human, UniProt P21757 77-451); assay: SPR Biacore, 25 C, antibody captured;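 note: rates from 1:1 fit with mass transport limitation of real-time sensorgrams, HEPES-buffered saline with EDTA and Tween-20 at pH 7.4, KD and t½ derived from the kinetic rates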
T3 construct: extracellular domain; also called His-hMSR1; 9xHis-hMSR1; not shown: N-terminal nonahistidine tag
T3 sequence (looked up): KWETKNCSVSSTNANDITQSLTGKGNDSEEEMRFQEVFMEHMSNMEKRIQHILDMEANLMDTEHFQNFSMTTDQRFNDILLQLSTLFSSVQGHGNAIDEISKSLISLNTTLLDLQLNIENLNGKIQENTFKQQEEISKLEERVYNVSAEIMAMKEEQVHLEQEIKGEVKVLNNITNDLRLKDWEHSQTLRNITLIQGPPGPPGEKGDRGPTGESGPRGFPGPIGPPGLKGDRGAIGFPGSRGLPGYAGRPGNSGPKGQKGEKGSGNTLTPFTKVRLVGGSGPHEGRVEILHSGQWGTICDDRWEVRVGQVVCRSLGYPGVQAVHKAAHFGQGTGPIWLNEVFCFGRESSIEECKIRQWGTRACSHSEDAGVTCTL

[5] = biological target: T3, human MSR1 extracellular domain …; assay: SPR Biacore, 37 C, antibody captured
Protocol: as §1, §2

B1: H1H27751P-N297Q (antibody, V domains shown)
VH: EVQLVESGGGLVQPGGSLRLSCAASGFTFSNYAMHWVRQAPGKGLEYVSAISSNGGSTYYADSVKGRITISRDNSKNTLYLQMGSLRAEDMAVYYCARGRPYYYYFGMDVWGQGTTVTVSS
VL: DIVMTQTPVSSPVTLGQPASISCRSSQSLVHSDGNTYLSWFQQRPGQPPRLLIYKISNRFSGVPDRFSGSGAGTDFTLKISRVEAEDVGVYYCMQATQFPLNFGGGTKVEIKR
notes: Human IgG1 Fc with N297Q point mutation
Kd [1]: 1.55 nM | koff [1]: 0.0018 s⁻¹ | kon [1]: 1.17e+06 M⁻¹ s⁻¹ | t½ [1]: 6 min | binding result [2]: no binding (tested: 50 nM) | Kd [3]: 1.01 nM | koff [3]: 0.000749 s⁻¹ | kon [3]: 744000 M⁻¹ s⁻¹ | t½ [3]: 15 min | Kd [4]: 0.172 nM | koff [4]: 0.000305 s⁻¹ | kon [4]: 1.78e+06 M⁻¹ s⁻¹ | t½ [4]: 38 min

B2: H1H27729P-N297Q (antibody, V domains shown)
VH: QVQLVESGGGLVKPGGSLRLSCAASGFIFSDYYMSWIRQAPGKGLEWVSYISSSGTTIYGDSVKGRFTMSRDNAKNSLYLQMNSLRAEDTAVYYCARNYALFDYWGQGTLVTVSS
VL: DIQMTQSPSSLSASVGDRVTITCQASQDISKYLNWYQQKPGKAPKLLIYYTSNLETGVPSRFSGSGSGTDFTFTISSLQPEDIATYYCHQSDYLPFTFGPGTKVDIKR
notes: as for B1
Kd [1]: 8.58 nM | koff [1]: 0.00349 s⁻¹ | kon [1]: 407000 M⁻¹ s⁻¹ | t½ [1]: 3.3 min | Kd [5]: 8.53 nM | koff [5]: 0.00204 s⁻¹ | kon [5]: 239000 M⁻¹ s⁻¹ | t½ [5]: 6 min | binding result [2]: no binding (tested: 50 nM) | Kd [3]: 7.9 nM | koff [3]: 0.00212 s⁻¹ | kon [3]: 269000 M⁻¹ s⁻¹ | t½ [3]: 5 min | Kd [4]: 5.45 nM | koff [4]: 0.00107 s⁻¹ | kon [4]: 197000 M⁻¹ s⁻¹ | t½ [4]: 11 min

B5: H1H27734P-N297Q (antibody, V domains shown)
VH: EVQLVESRGGLVQPGGSLRLSCAASGFTFSSYAMSWVRQAPGKGLEWVSAISGSGGSTFYADSVKGRFTISRDNSKNTVYLQMNSLRAEDTAVYYCAKALVLRFLEWLGDYWGQGTLVTVSS
VL: DIQMTQSPSTLSASVGDRVTITCRASQSISSWLAWFQQKPGKAPKLLIYKASSLESGVPSRFSGSGSGTEFTLTISSLQPDDFATYYCQQYKSYWTFGQGTKVEIKR
notes: as for B1
Kd [1]: 3.37 nM | koff [1]: 0.0032 s⁻¹ | kon [1]: 949000 M⁻¹ s⁻¹ | t½ [1]: 4 min | Kd [5]: 1.74 nM | koff [5]: 0.0019 s⁻¹ | kon [5]: 1.09e+06 M⁻¹ s⁻¹ | t½ [5]: 6 min | binding result [2]: no binding (tested: 50 nM) | Kd [3]: 6.88 nM | koff [3]: 0.00291 s⁻¹ | kon [3]: 423000 M⁻¹ s⁻¹ | t½ [3]: 4 min | Kd [4]: 2.64 nM | koff [4]: 0.00111 s⁻¹ | kon [4]: 420000 M⁻¹ s⁻¹ | t½ [4]: 10 min

B9: H1H27739P-N297Q (antibody, V domains shown)
VH: EVQLVESGGGLVQPGGSLRLSCTASGFTFSSYAMSWVRQAPGKGLEWVSAISGTGSSTYFTDSVKGRFAISRDNSKNTLYLQMNSLRAEDTAVYYCAKDGEWLSTVTLFDYWGQGTLVTVSS
VL: EIVMTQSPATLSVSPGERATLSCRASQSVSSNLAWYQQKPGQAPRLLIYGASTRATGIPARFSGSGSGTDFTLTISSLQSEDFALYYCQQYFIWPPHPTFGPGTKVDIKR
notes: as for B1
Kd [1]: 0.374 nM | koff [1]: 0.000842 s⁻¹ | kon [1]: 2.25e+06 M⁻¹ s⁻¹ | t½ [1]: 14 min | Kd [5]: 3.72 nM | koff [5]: 0.00288 s⁻¹ | kon [5]: 776000 M⁻¹ s⁻¹ | t½ [5]: 4 min | binding result [2]: no binding (tested: 50 nM) | Kd [3]: 0.41 nM | koff [3]: 0.000144 s⁻¹ | kon [3]: 352000 M⁻¹ s⁻¹ | t½ [3]: 80 min | Kd [4]: 2.74 nM | koff [4]: 0.00103 s⁻¹ | kon [4]: 375000 M⁻¹ s⁻¹ | t½ [4]: 11 min

B10: H1H27762P-N297Q (antibody, V domains shown)
VH: QVQLVQSGAEVKKPGSSVKVSCKASGGTFSRYDISWVRQAPGQGLEWMGGIIPIFGTSNYAQKFQGRVTITTDESTSTVYMELSSLRSEDTAVYYCARGGRYGWFDPWGQGTLVTVSS
VL: not shown
notes: Human IgG1 Fc with N297Q; tied by the numerical identifier; also called H1H27762P2-N297Q; H1H27762P2
Kd [1]: 0.698 nM | koff [1]: 0.00197 s⁻¹ | kon [1]: 2.82e+06 M⁻¹ s⁻¹ | t½ [1]: 6 min | Kd [5]: 0.64 nM | koff [5]: 0.00196 s⁻¹ | kon [5]: 3.06e+06 M⁻¹ s⁻¹ | t½ [5]: 6 min | binding result [2]: no binding (tested: 50 nM) | Kd [3]: 1.59 nM | koff [3]: 0.00199 s⁻¹ | kon [3]: 1.25e+06 M⁻¹ s⁻¹ | t½ [3]: 6 min | Kd [4]: 1.85 nM | koff [4]: 0.00183 s⁻¹ | kon [4]: 989000 M⁻¹ s⁻¹ | t½ [4]: 6 min

The remaining binders from weak to strong by Kd [3], led by results:

Kd [1]: 3.97 nM | t½ [1]: 4 min | Kd [5]: 1.16 nM | t½ [5]: 15 min | binding result [2]: no binding (tested: 50 nM) | Kd [3]: 6.81 nM | t½ [3]: 5 min | Kd [4]: 0.406 nM | t½ [4]: 94 min
B6: H1H27756P-N297Q (antibody, V domains shown)
VH: QVQLVESGGGVVQPGRSLRLSCAASGFTFSNYDMHWVRQAPGKGLEWMAVISYDGINKYYADSVKGRFTISRDNSKNTLYLQMNSLRAEDTAVYYCAKGTYSWYFDLWGRGTLVTVSS
VL: not shown
notes: as for B1

Kd [1]: 3.47 nM | koff [1]: 0.00228 s⁻¹ | kon [1]: 657000 M⁻¹ s⁻¹ | t½ [1]: 5 min | Kd [5]: 5.37 nM | koff [5]: 0.00276 s⁻¹ | kon [5]: 513000 M⁻¹ s⁻¹ | t½ [5]: 4 min | binding result [2]: no binding (tested: 50 nM) | Kd [3]: 3.78 nM | koff [3]: 0.000874 s⁻¹ | kon [3]: 231000 M⁻¹ s⁻¹ | t½ [3]: 13 min
B4: H1H27747P-N297Q (antibody, V domains shown)
VH: QVQLVESGGAVVQPGRSLRLSCAASGFTFSYYGMHWVRQAPGKGLEWVAVISYDGSKKYYADSVKGRFTISRDNSKNTLYLQMNSLRAEDTAVYYCAKDLTVDFYYGMDVWGQGTTVTVSS
VL: DIQMTQSPSSVSASVGDRVTITCRASQGISSWLAWYQQKPGKAPKLLIYATSSLQSGAPSRFSGSGSGTDFTLTISSLQPEDFATYFCQQANSFPYTFGQGTKLEIKR
notes: as for B1

Kd [1]: 1.28 nM | koff [1]: 0.00188 s⁻¹ | kon [1]: 1.46e+06 M⁻¹ s⁻¹ | t½ [1]: 6 min | Kd [5]: 2.24 nM | koff [5]: 0.0023 s⁻¹ | kon [5]: 1.03e+06 M⁻¹ s⁻¹ | t½ [5]: 5 min | binding result [2]: no binding (tested: 50 nM) | Kd [3]: 2.2 nM | koff [3]: 0.000919 s⁻¹ | kon [3]: 417000 M⁻¹ s⁻¹ | t½ [3]: 13 min | Kd [4]: 2.03 nM | koff [4]: 0.00122 s⁻¹ | kon [4]: 599000 M⁻¹ s⁻¹ | t½ [4]: 9 min
B8: H1H27759P-N297Q (antibody, V domains shown)
VH: EVQLVESGGGFVQPGGSLRLSCAASGFTFSSYAMSWVRQAPGKGLEWVSAISGTGSNTYYADSVKGRFTISRDNSKNTLYLQMNSLRAEDTAVYYCAKDRVTTVTYYFDYWGQGTLVTVSS
VL: not shown
notes: Human IgG1 Fc with N297Q; tied by the numerical identifier; also called H1H27759P2-N297Q; H1xH27759P2

t½ [1]: 7 min | Kd [5]: 1.74 nM | t½ [5]: 6 min | binding result [2]: no binding (tested: 50 nM) | Kd [3]: 1.93 nM | t½ [3]: 16 min | Kd [4]: 2 nM | t½ [4]: 13 min
B7: H1H27760P-N297Q (antibody, V domains shown)
VH: EVQLVESGGGLVQPGRSLRLSCAASGFTFDAYAMHWVRQAPGKGLEWVSGISWNSGSIGYADSVKGRFTISRDNAKNSLYLQMNSLREEDTALYYCAKDKILELYYYGMDVWGQGTTVTVSS
VL: not shown
notes: Human IgG1 Fc with N297Q; tied by the numerical identifier; also called H1H27760P2-N297Q; H1H27760P2

Kd [1]: 0.674 nM | koff [1]: 0.000187 s⁻¹ | kon [1]: 278000 M⁻¹ s⁻¹ | t½ [1]: 62 min | Kd [5]: 0.462 nM | koff [5]: 0.000132 s⁻¹ | kon [5]: 286000 M⁻¹ s⁻¹ | t½ [5]: 88 min | binding result [2]: no binding (tested: 50 nM) | Kd [3]: 0.477 nM | koff [3]: 4.69e-05 s⁻¹ | kon [3]: 98200 M⁻¹ s⁻¹ | t½ [3]: 247 min | Kd [4]: 0.174 nM | koff [4]: 2.24e-05 s⁻¹ | kon [4]: 129000 M⁻¹ s⁻¹ | t½ [4]: 515 min
B3: H1H27731P-N297Q (antibody, V domains shown)
VH: QLQLQESGPGLVKPSETLSLTCTVSGGSISRISYYWGWIRQPPGKGLEWIGSIYDSGSTYYNPSLKSRVTISIDTSKNQFSLKLSSVTAADTAVYYCVRYSSSSAFAFDYWGQGTLVTVSS
VL: B4 VL with T51A, A58V, F87Y, Y96F, Q100P, L104V, E105D
notes: as for B1
